Data on three molecules can be found in patent publication US20240263180, “SMALL COMPLEMENTARY NUCLEIC ACIDS, COMPOSITIONS CONTAINING THE SAME, AND METHODS FOR USE AS ANTIVIRALS” (HOWARD UNIVERSITY, published 2024).

The target in series [1] is T1, U2AF65 (UniProt P26368 P26368:2-475). The series can be described thus: EMSA; native PAGE. The note with it: label: radiolabel. (In general: In EMSA bound probe runs differently from free probe, usually more slowly.)
Series [2] deals with T1, U2AF65. The series can be described thus: EMSA. The settings on record: label: radiolabel.

T1 sequence (P26368 2-475, one chain of several): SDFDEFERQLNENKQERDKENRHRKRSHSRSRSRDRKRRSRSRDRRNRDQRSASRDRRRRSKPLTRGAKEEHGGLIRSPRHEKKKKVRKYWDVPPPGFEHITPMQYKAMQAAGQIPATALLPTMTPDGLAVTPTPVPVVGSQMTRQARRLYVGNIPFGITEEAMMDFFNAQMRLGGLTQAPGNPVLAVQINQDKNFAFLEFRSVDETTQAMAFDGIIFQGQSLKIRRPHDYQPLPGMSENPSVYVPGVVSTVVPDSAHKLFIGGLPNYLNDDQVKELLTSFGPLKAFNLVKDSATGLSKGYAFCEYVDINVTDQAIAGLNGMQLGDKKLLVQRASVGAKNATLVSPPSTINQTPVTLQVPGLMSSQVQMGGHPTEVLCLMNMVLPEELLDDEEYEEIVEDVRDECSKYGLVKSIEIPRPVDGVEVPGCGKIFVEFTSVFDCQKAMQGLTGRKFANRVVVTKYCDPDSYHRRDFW

B1: wt PyA+PyB RNA probe (HCMV MIE intron 4) (ssRNA)
RNA: CACGCCUGUGAAACCGUACUAAGUCUCCCGUGUCUUCUUAUCACCAUCAG
Turning to B1, the binding result in series [1] is recorded as “binds”.

B2: dPyB probe (ssRNA)
RNA: CACGCCUGUGAAACCGUACUAAGUCUCCCGUGUCAAGUUAUCACCAUCAG
For the molecule B2, in series [2], the binding result is given as “no binding”.

B3: dPyAB probe (ssRNA)
RNA: CACGCCUGUGAAACCGUACUAAGUCAGCCGUGUCAAGUUAUCACCAUCAG
For the molecule B3, the binding result in series [2] is “no binding”.
